Measurements from the supplement of paper PMC12764529.
± gives the half width of the 95% confidence interval.

Key:
[1] = folding stability dG unfold from chymotrypsin proteolysis; higher = more stable
Outline: (§1)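 Designed mini-proteins (under 80 residues, no cysteine) in a PA-tagged cDNA display construct were digested with trypsin and chymotrypsin. Each protease was used at 11 concentrations (threefold dilutions) plus a no-protease condition, followed by sequencing. K50 was inferred by Bayesian fitting of sequencing counts, and unfolding free energy was derived against a sequence-predicted unfolded-state K50 and a shared folded-state K50, per protease or combined. Only designs with AlphaFold2 dimer inter-PAE above 15 were kept.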

[2] = folding stability dG unfold (combined trypsin and chymotrypsin); higher = more stable
Outline: as §1

[3] = folding stability dG unfold from trypsin proteolysis; higher = more stable
Outline: as §1

Row | Sequence | folding stability dG unfold [1] [kcal/mol] | folding stability dG unfold [2] [kcal/mol] | folding stability dG unfold [3] [kcal/mol]
1 | SAGGSAGGSAGGLVLTSTSFTSSNTMVVTTTTLTTNADGSLSTTSTTTTTPVPPPKPGLPSAGGSAGGSAGG [r11_728_JUSTAS] | 0.509 ± 0.092 | 0.443 ± 0.077 | 0.161 ± 0.042
2 | SAGGSAGGSAGGMAASVSPSVSYDPNTPVTNTKYTITTDGGVTPTTVVTPVVTPPPSPALSAGGSAGGSAGG [r7_413_JUSTAS] | 0.149 ± 0.11 | 0.198 ± 0.17 | -0.148 ± 0.16
3 | SAGGSAGGSAGGMEIEKNENGELIIKFKSKEEAEKAIEELKKKGYKVELNEDGYLIIKPSAGGSAGGSAGGS [r10_1027_TrROS_Hall] | 4.07 ± 0.14 | 3.96 ± 0.13 | 3.34 ± 0.16
4 | SAGGSAGGSAGGMEIIEKEETLDEETLKKLEEEGVPKSEATVKVTEVIYKEEYPEEGLKSAGGSAGGSAGGS [r10_1149_JUSTAS] | -0.692 ± 0.28 | -0.137 ± 0.34 | 0.359 ± 0.072
5 | SAGGSAGGSAGGMEIREVEVTFVPPDGTTTTRKVLATSEEEAKAILEEELPPDWEIILRSAGGSAGGSAGGS [r10_145_JUSTAS] | 0.831 ± 0.034 | 0.55 ± 0.082 | -0.122 ± 0.11
6 | SAGGSAGGSAGGMEKVTEVKPVATLPNGTVVTETLVTYTAPNGPEIGEEVVLTEDPVPKSAGGSAGGSAGGS [r10_941_JUSTAS] | -0.408 ± 0.2 | -0.455 ± 0.15 | -0.942 ± 0.22
7 | SAGGSAGGSAGGMELELTFATPEQAVEYAERFERLGYEVEVEYYPETGLVRVRVRLYPEESAGGSAGGSAGG [r7_623_TrMRF] | 3.6 ± 0.072 | 3.76 ± 0.074 | 3.97 ± 0.11
8 | SAGGSAGGSAGGMEVKTVEDPKGLTVEVSPPVGTATTVYGDETVTHTLSPSATVALEPASAGGSAGGSAGGS [r10_637_JUSTAS] | 0.435 ± 0.033 | 0.31 ± 0.1 | -0.0233 ± 0.042
9 | SAGGSAGGSAGGMEYSISNVTTETFPEGNKTVTVETYTFDDGGTITVTKENGKVLEVNPKSAGGSAGGSAGG [r7_552_JUSTAS] | 0.586 ± 0.062 | 0.135 ± 0.11 | -1.57 ± 0.56
10 | SAGGSAGGSAGGMFVRIEVDGKTILLEADSLEEALAAIRALLPPGEKVKVELVSEEELKSAGGSAGGSAGGS [r10_1167_TrROS_Hall] | 3.04 ± 0.068 | 2.85 ± 0.047 | 2.44 ± 0.084
11 | SAGGSAGGSAGGMIKTEDGYEVEIKIEVEEIPLPEGMSEEEKEKLKKIRIIRIEIKVTKKSAGGSAGGSAGG [r7_324_TrROS_Hall] | 2.5 ± 0.33 | 2.26 ± 0.36 | 1.67 ± 0.12
12 | SAGGSAGGSAGGMILVENPSLNESTVLSKDTPISSFKVPSDNSKVRIIIIYPSNSFVVISSAGGSAGGSAGG [r7_763_JUSTAS] | 1.55 ± 0.14 | 1.71 ± 0.088 | 1.85 ± 0.073
13 | SAGGSAGGSAGGMIRIENPGNGEPRPIKPNDLEDILDNFPGPMRIETGGGEKEVPAKDISAGGSAGGSAGGS [r10_839_TrROS] | 0.052 ± 0.079 | -0.0618 ± 0.21 | -0.528 ± 0.13
14 | SAGGSAGGSAGGMIRIVNEETGEEIEISPEELEELLAKSDKPVRIEVDGKVIPLDAKDLSAGGSAGGSAGGS [r10_839_TrROS_Hall] | -0.268 ± 0.054 | 0.352 ± 0.091 | 0.85 ± 0.03
15 | SAGGSAGGSAGGMITVEYDPSRPVYTVTVTDPTTGKTTVIDVPRDDLEQALALAEALLKSAGGSAGGSAGGS [r10_1117_JUSTAS] | 1.95 ± 0.03 | 1.67 ± 0.064 | 0.647 ± 0.046
16 | SAGGSAGGSAGGMKITLTVPSEEEIEALTPPDAKITEIKKIGKDPVKGLPYYEVVLDPSSAGGSAGGSAGGS [r10_256_JUSTAS] | 0.411 ± 0.033 | 0.0912 ± 0.14 | -1.42 ± 0.44
17 | SAGGSAGGSAGGMKKGQKFKPVKKVKLRFKVKVKVKVGGKEYEFEAEVELEVEFYVLEDSAGGSAGGSAGGS [r10_758_TrROS_Hall] | 4.41 ± 0.17 | 3.68 ± 0.25 | 2.55 ± 0.2
18 | SAGGSAGGSAGGMKKPILLPGETEEDVLERIKKLPKDYKVTIEKLDDDKLLVTITSPKLGSAGGSAGGSAGG [r7_662_JUSTAS] | -0.5 ± 0.51 | 0.58 ± 0.33 | 0.877 ± 0.14
